Data: paper PMC11059001

B1: truncated Trichinella spiralis calreticulin TsCRT^Δ (22-209, GSG linker, 305-364) D139A; H149A (protein)
chain: EPTIYLKETFDDGDAWKERWVQSKHKDDYGEWQLSHGKLFADENDMGLKTMQDARFYSLSRKFDKVVDNKDKPLVIVYTVKHEQDIDCGGGYIKLMLENTDLEDFNSDTPYRIMFGPAICGPEKRAVASILWHDGKNYEKRKNAIAMADIFTHAYKLIIFPNNSYEIWVNNDKEAYGRLEDDWTMTEPGSGPVPELYRYKGLGAIGFELWQVKSGTIFDNILITDDPEYAKEFIDKQLEALRPIEKVESDK
B2: truncated Trichinella spiralis calreticulin TsCRT^Δ (22-209, GSG linker, 305-364) C141A; K145A (protein)
chain: EPTIYLKETFDDGDAWKERWVQSKHKDDYGEWQLSHGKLFADENDMGLKTMQDARFYSLSRKFDKVVDNKDKPLVIVYTVKHEQDIDCGGGYIKLMLENTDLEDFNSDTPYRIMFGPDIAGPEARAVHSILWHDGKNYEKRKNAIAMADIFTHAYKLIIFPNNSYEIWVNNDKEAYGRLEDDWTMTEPGSGPVPELYRYKGLGAIGFELWQVKSGTIFDNILITDDPEYAKEFIDKQLEALRPIEKVESDK
B3: truncated Trichinella spiralis calreticulin TsCRT^Δ (22-209, GSG linker, 305-364) M135A; I151A (protein)
chain: EPTIYLKETFDDGDAWKERWVQSKHKDDYGEWQLSHGKLFADENDMGLKTMQDARFYSLSRKFDKVVDNKDKPLVIVYTVKHEQDIDCGGGYIKLMLENTDLEDFNSDTPYRIAFGPDICGPEKRAVHSALWHDGKNYEKRKNAIAMADIFTHAYKLIIFPNNSYEIWVNNDKEAYGRLEDDWTMTEPGSGPVPELYRYKGLGAIGFELWQVKSGTIFDNILITDDPEYAKEFIDKQLEALRPIEKVESDK
B4: truncated Trichinella spiralis calreticulin TsCRT^Δ (22-209, GSG linker, 305-364) W323A; V325A (protein)
chain: MGSSHHHHHHSSGENLYFQGGSEPTIYLKETFDDGDAWKERWVQSKHKDDYGEWQLSHGKLFADENDMGLKTMQDARFYSLSRKFDKVVDNKDKPLVIVYTVKHEQDIDCGGGYIKLMLENTDLEDFNSDTPYRIMFGPDICGPEKRAVHSILWHDGKNYEKRKNAIAMADIFTHAYKLIIFPNNSYEIWVNNDKEAYGRLEDDWTMTEPGSGPVPELYRYKGLGAIGFELAQAKSGTIFDNILITDDPEYAKEFIDKQLEALRPIEKVESDK

These binders were tested against complement C1q, P02745;P02746;P02747 (assay: MST). Details: chain shown with the change.
Binder B1 has a Kd of 19 µM.
With B2 the Kd was 34.8 µM.
For B3, the Kd was 5.99 µM.
B4 showed a Kd of 22.9 µM.
